This note sets out measurements from publication PMC2366074.

The target in this experiment is T1, inositol monophosphatase (IMPase) (UniProt P29218).
T1 sequence: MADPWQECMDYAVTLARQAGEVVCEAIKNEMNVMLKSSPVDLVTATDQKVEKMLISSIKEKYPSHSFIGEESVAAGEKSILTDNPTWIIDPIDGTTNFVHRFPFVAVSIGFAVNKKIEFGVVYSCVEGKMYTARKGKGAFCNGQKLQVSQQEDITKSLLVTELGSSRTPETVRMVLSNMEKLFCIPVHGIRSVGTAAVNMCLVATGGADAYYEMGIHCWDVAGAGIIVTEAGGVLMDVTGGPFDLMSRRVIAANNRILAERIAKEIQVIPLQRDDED

B1: recombinant calbindin (natural protein)
chain: MAESHLQSSLITASQFFEIWLHFDADGSGYLEGKELQNLIQELQQARKKAGLELSPEMKTFVDQYGQRDDGKIGIVELAHVLPTEENFLLLFRCQQLKSCEEFMKTWRKYDTDHSGFIETEELKNFLKDLLEKANKTVDDTKLAEYTDLMLKLFDSNNDGKLELTEMARLLPVQENFLLKFQGIKMCGKEFNKAFELYDQDGNGYIDENELDALLKDLCEKNKQDLDINNITTYKKNIMALSDGGKLYRTDLALILCAGDN
Turning to B1, the IMPase activity in brain homogenates (Pi release from inositol-1-phosphate) with 20 uM recombinant calbindin came out at 1.66 fold.
